The target of assay [1] is T1, human transferrin receptor (hTfR) fused to EGFP, on CHO cells (human, UniProt P02786 1-760).
T1 construct: whole, on cells; also called human TfR; CHO-hTfR-EGFP; not shown: EGFP from pEGFP-C1 vector, fused to the N-terminal (intracellular) end of hTfR
The assay can be described thus: apparent Kd, flow cytometry, CHO cells. Summed up:
(§1)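 CHO cells expressing TfR-EGFP fusions, blocked in PBS/BSA 2%, then incubated with increasing VHH concentrations for 1 hr at 4° C. Bound VHH detected via anti-6His antibody and Alexa647 secondary, cells PFA-fixed, read by flow cytometry. Apparent Kd from nonlinear fit.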

For assay [2], the target named is T2, mouse transferrin receptor (mTfR) fused to EGFP, on CHO cells (mouse, UniProt Q62351 1-763).
T2 construct: whole, on cells; also called mouse TfR; CHO-mTfR-EGFP; not shown: EGFP
In words: flow cytometry, CHO cells. As to the method: The binding properties of VHHs with affinity for the TfR from different species (i.e., human (h), mouse (m) and rhesus monkey (rh)) were tested using flow cytometry, and apparent affinities (Kd app) were determined. All experiments were performed in 96 well plates using 2×10⁵ cells/well, at 4° C. with shaking. CHO cell lines expressing the hTfR, mTfR or rhTfR fused to EGFP were saturated with PBS/BSA 2% solution during 30 min to avoid nonspecific binding, followed by incubation with purified VHHs at increasing concentrations for 1 hr. After one wash in PBS/BSA 2%, cells were incubated for 1 hr with an anti-6His tag antibody (mouse), washed twice with PBS/BSA 2%, and incubated for 1 hr with an Alexa647-conjugated anti-mouse secondary antibody. After two last washes in PBS/BSA 2%, cells were fixed by incubation for 15 min with PBS/PFA 2%, washed once with PBS and finally resuspended in PBS. Fluorescence levels were assessed using an Attune NxT flow cytometer (Thermo Fisher Scientific). Experimental data were fitted with GraphPad Prism® software using a nonlinear fit to determine the apparent Kd constants. […] Table 5 hereafter summarizes apparent Kd obtained for the tested VHHs.

The target in assay [3] is T3, human TfR ectodomain fused to a mouse IgG1 Fc fragment (human, UniProt P02786 89-760).
T3 construct: extracellular domain; ectodomain fused to the N-terminal end of the Fc, made in-house; not shown: mouse IgG1 Fc fragment
The assay can be described thus: SPR, kinetic. The method, boiled down: (§2)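 TfR–mouse Fc fusions, produced in-house, captured on HC 1500M or CM5 chips either directly or via immobilized anti-mouse IgG. VHHs injected in single-cycle or multiple-cycle kinetic mode on Biacore T200.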

The target in assay [4] is T2, mouse transferrin receptor (mTfR) fused …. In words: apparent Kd, flow cytometry, CHO cells. Summed up: as §1
In general terms: A flow cytometer gives signals particle by particle.

Assay [5] has as its target T4, rhesus monkey transferrin receptor (rhTfR) fused to EGFP, on CHO cells (rhesus monkey).
T4 construct: whole, on cells; also called rhesus monkey TfR
In words: apparent Kd, flow cytometry, CHO cells. Summed up:
as §1

Assay [6] deals with T5, mouse TfR ectodomain fused to a mouse IgG1 Fc fragment (mouse, UniProt Q62351 89-763).
T5 construct: extracellular domain; not shown: mouse IgG1 Fc fragment
The assay can be described thus: SPR, at equilibrium. The method, boiled down: as §2
A general note: Surface plasmon resonance follows binding to a sensor surface in real time, without labels.

The target of assay [7] is T5, mouse TfR ectodomain fused to a mouse …. The assay can be described thus: SPR, kinetic. The method, boiled down:
as §2

Assay [8] deals with T3, human TfR ectodomain fused to a mouse …. In words: SPR, at equilibrium. The method, boiled down:
as §2

The target in assay [9] is T6, rhesus monkey TfR ectodomain fused to a mouse IgG1 Fc fragment (rhesus monkey, UniProt I0FKY7 89-760).
T6 construct: extracellular domain; not shown: mouse IgG1 Fc fragment
The assay can be described thus: SPR, at equilibrium. Summed up: as §2

In assay [10] the target is T6, rhesus monkey TfR ectodomain fused to a …. The assay can be described thus: SPR, kinetic. The method, boiled down: as §2

T5 sequence (Q62351 89-763): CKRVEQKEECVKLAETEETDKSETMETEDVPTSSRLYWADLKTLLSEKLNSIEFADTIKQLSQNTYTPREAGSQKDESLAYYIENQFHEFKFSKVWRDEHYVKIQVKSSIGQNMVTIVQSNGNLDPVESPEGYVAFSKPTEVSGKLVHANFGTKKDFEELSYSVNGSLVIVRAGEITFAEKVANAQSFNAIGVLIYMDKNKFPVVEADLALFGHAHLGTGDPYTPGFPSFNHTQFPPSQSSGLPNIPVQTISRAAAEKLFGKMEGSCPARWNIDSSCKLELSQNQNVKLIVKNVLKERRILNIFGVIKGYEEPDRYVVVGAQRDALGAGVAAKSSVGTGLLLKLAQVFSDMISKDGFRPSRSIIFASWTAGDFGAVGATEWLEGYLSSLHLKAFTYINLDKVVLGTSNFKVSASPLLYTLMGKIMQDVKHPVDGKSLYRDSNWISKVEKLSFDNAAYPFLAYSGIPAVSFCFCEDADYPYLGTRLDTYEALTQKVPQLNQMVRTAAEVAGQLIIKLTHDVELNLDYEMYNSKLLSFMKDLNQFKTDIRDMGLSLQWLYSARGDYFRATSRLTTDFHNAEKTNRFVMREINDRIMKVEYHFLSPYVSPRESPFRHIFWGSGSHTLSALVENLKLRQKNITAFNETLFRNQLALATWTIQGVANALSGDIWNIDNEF
T2 sequence (Q62351 whole entry, the tested form may be a part): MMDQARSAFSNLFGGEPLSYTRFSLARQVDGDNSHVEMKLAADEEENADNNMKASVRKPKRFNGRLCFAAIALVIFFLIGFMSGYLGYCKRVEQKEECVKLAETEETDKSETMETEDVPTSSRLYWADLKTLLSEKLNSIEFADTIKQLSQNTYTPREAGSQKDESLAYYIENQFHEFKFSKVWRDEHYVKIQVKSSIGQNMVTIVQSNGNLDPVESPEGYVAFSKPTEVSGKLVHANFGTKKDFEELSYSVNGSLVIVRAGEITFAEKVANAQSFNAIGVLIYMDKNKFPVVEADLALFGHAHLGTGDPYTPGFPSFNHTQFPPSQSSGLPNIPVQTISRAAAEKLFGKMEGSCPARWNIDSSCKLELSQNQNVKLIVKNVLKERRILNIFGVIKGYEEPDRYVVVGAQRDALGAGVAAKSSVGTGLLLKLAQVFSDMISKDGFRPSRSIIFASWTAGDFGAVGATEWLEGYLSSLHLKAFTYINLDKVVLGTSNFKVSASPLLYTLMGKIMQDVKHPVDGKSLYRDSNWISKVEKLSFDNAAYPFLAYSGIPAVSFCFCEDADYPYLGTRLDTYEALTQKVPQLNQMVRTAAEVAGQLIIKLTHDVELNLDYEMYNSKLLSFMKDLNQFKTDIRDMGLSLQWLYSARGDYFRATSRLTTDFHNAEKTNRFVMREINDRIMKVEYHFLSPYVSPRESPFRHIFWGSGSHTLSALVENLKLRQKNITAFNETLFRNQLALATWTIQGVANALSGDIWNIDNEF
T1 sequence (P02786 whole entry, the tested form may be a part): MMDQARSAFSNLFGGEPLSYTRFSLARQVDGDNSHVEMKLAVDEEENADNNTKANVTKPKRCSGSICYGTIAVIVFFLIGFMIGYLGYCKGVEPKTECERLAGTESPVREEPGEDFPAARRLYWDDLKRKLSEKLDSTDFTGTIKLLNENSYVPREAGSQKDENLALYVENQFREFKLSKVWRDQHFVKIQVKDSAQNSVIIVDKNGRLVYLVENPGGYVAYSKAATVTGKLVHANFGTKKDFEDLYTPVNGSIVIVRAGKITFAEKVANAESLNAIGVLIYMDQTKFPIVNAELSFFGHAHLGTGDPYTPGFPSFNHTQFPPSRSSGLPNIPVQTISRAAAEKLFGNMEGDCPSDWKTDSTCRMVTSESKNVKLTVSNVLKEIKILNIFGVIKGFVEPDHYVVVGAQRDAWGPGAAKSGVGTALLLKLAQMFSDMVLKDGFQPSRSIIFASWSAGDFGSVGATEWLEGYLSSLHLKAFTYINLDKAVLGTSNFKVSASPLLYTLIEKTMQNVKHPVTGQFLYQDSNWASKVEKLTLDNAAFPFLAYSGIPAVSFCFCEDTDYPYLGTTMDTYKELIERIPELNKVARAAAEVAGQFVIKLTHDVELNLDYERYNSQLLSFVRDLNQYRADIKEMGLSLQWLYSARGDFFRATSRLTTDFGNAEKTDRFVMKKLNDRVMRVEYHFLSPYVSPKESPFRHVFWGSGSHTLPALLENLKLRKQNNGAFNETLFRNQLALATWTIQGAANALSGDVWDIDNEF
T3 sequence (P02786 89-760): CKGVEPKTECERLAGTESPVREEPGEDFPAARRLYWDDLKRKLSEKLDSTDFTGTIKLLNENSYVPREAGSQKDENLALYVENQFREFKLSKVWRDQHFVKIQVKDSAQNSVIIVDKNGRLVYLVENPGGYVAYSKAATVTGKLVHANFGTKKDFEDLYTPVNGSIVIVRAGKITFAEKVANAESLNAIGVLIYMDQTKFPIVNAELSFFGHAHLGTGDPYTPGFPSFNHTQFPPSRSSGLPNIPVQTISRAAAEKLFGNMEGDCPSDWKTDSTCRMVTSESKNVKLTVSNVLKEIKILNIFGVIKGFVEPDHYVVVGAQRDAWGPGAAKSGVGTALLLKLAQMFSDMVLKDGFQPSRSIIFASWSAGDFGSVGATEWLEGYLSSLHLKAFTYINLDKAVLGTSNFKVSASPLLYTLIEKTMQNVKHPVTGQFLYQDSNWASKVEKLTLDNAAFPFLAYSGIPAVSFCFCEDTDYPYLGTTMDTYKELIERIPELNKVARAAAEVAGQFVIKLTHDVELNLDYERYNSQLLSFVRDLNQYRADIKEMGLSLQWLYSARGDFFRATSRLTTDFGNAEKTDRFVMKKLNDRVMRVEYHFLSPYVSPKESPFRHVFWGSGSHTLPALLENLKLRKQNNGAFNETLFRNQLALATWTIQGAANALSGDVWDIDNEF

B1: B7 (VHH)
VHH: QVQLVQSGGGLVQAGGSLTLSCTASGRPLSDYPMGWFRRAPEKERELVASISRTGDGTYYADGMRGRFTISRDNSENTVSLQMNNLKPEDTAVYYCGAGINPTKYWGQGTQVTVSS
One may read the koff as the first-order rate constant of dissociation. In general, kon refers to the second-order rate constant of association. As to B1, the Kd in assay [1] stood at 1.9 nM. Besides, the binding result in assay [2] was “no binding”. In [3], this molecule returned a Kd of 0.652 nM, a koff of 0.000758 s⁻¹ and an association rate constant (kon) of 1.16e+06 M⁻¹ s⁻¹.

B2: C5^V29 (VHH)
VHH: EVQLVESGGGVVQPGGSLKLSCVASGADFSINFIRWYRQAPGKQREFVAGFTATGHTNYADSMKGRFTISRDNTKNAVYLQIDSLKPEDTAVYYCYMLDKWGQGTQVTVSS
As to B2, the Kd in assay [1] is 2.9 nM; in assay [4] it was 207 nM; in assay [5], 66 nM; in [6], 240 nM; in [3], 0.846 nM; in [7], 143 nM. The dissociation rate constant (koff) was 0.000982 s⁻¹ in assay [3] and 0.0675 s⁻¹ in assay [7]. Also, the values for the kon in [3] and in assay [7] were 1.17e+06 M⁻¹ s⁻¹ and 472000 M⁻¹ s⁻¹, respectively.

B3: VHH A3 (C5^V3) (VHH)
VHH: EVQLVESGGGVVQPGGSLKLSCVASGTDFSINFIRWYRQAPGKQREFVAGFTAAGNTNYADSMKGRFTISRDNTKNAVYLQIDSLKPEDTAVYYCYMLDKWGQGTQVTVSS
As for B3, the Kd in assay [4] was determined as 138 nM; in assay [5], 7 nM; in assay [6] it was 98.8 nM; in assay [7] it was 83.5 nM. Moreover, in assay [7], the off-rate constant (koff) turned out to be 0.0467 s⁻¹. Also, in [7], the kon was 647000 M⁻¹ s⁻¹.

B4: VHH A2 (C5^V2) (VHH)
VHH: EVQLVESGGGVVQPGGSLKLSCVASGTAFSINFIRWYRQAPGKQREFVAGFTATGNTNYADSMKGRFTISRDNTKNAVYLQIDSLKPEDTAVYYCYMLDKWGQGTQVTVSS
Take B4: the Kd in [1] amounted to 3.2 nM; in assay [4] it was 136 nM; in assay [5], 5.7 nM; in assay [6] it was 108 nM; in assay [7] it was 109 nM. The dissociation rate constant (koff) in [7] was found to be 0.0579 s⁻¹. This molecule also displayed a kon in assay [7] of 583000 M⁻¹ s⁻¹.

B5: VHH A4 (C5^V4) (VHH)
VHH: EVQLVESGGGVVQPGGSLKLSCVASGTDFSINFIRWYRQAPGKQREFVAGFTATGATNYADSMKGRFTISRDNTKNAVYLQIDSLKPEDTAVYYCYMLDKWGQGTQVTVSS
Consider B5, for which the Kd in [1] came out at 3.1 nM; in assay [4], 179 nM; in assay [5] it was 3.4 nM; in assay [6], 91.8 nM; in assay [7], 89.7 nM. For the same molecule, the dissociation rate constant (koff) in assay [7] came out at 0.0532 s⁻¹. In addition, in assay [7], the on-rate (kon) stood at 652000 M⁻¹ s⁻¹.

B6: VHH A11 (C5^V11) (VHH)
VHH: EVQLVESGGGVVQPGGSLKLSCVASGTDFSINYIRWYRQAPGKQREFVAGFTATGNTNYADSMKGRFTISRDNTKNAVYLQIDSLKPEDTAVYYCYMLDKWGQGTQVTVSS
For the molecule B6, the Kd in assay [1] amounted to 3.4 nM; in [4], 197 nM; in assay [5], 20 nM; in [6] it was 74.7 nM; in assay [3] it was 0.395 nM; in assay [7] it was 61.3 nM. In addition, the off-rate (koff) in assay [3] was 0.000311 s⁻¹; in assay [7], 0.0218 s⁻¹. The kon is 790000 M⁻¹ s⁻¹ in assay [3] and 355000 M⁻¹ s⁻¹ in assay [7].

B7: VHH A9 (C5^V9) (VHH)
VHH: EVQLVESGGGVVQPGGSLKLSCVASGTDFSINFIRWYRQAPGKQREFVAGFTATGNTNYADSMKGRFTISRDNTKNAVYLQIDSLKPEDTAVYYCYMLDAWGQGTQVTVSS
Regarding B7, the Kd in assay [1] was 3.4 nM; in assay [4] it was 47 nM; in [5] it was 4.6 nM; in assay [6] it was 40.5 nM; in assay [7], 40.8 nM. The molecule further came in with a koff in assay [7] of 0.0197 s⁻¹. Also, the on-rate constant (kon) in [7] turned out to be 524000 M⁻¹ s⁻¹.

B8: C12b (VHH)
VHH: QVQLVQSGGGLVQPGGSLRLSCAASGFTFSAYAMSWVRQAPGKGRELVASISRTGDGTYYADGMKGRFTISRDNAENTVSLQINSLKPEDTAIYYCGAGINPTKYWGQGTQVTVSS
On to B8, for which the figures for the Kd in assay [1] and in [8] were 630 nM and 2440 nM, respectively. The binding result in assay [2] is “no binding”.

B9: B8^V22 (VHH)
VHH: EVQLVESGGGVVQPGGSLRLSCAASGEIFSINQMRWYRQAPGKQREWVAGFTRDGSTNYPDSAKGRFTISRDNAKNTVYLQIDSLKPEDTAVYYCYMLDTWGQGTQVTVSS
As for B9, the Kd was found to be 321 nM in assay [1], 971 nM in assay [5], 480 nM in [8] and 475 nM in assay [3]. In assay [2], the binding result was “no binding”. In assay [3], this molecule returned a kon of 698000 M⁻¹ s⁻¹.

B10: C3 (VHH)
VHH: EVQLVQSGGGLVQAGGSLRLSCAASGRDFSDTSMAWHRQAPGKERLWVAGIRSGSTSTSYADSVKGRFTISRDDAKNTVYLQMDNLTPEDTAVYFCYSKGYWGQGTQVTVSS
With B10, the Kd in [5] was 4230 nM. The binding result in [2] is “no binding”. Further, in assay [3], the Kd amounted to 0.559 nM, the off-rate constant (koff) was determined as 0.00249 s⁻¹ and the kon stood at 5.9e+06 M⁻¹ s⁻¹.

B11: C10a (VHH)
VHH: EVQLVESGGGLVQAGDSLRLSCAASGFASHLYAIGWFRQAPGKEREKVSCISSNDGSTYYADSVKGRFTISRDTVKDMVYLQMNSLKPEDTAVYYCATDLTVHCFMAEYDWWGQGTQVTVSS
As to B11, the Kd was 4.1 nM in [1]; 3.2 nM in assay [5]; 86.8 nM in assay [8]; 38.1 nM in [9]; 44.6 nM in [3]; 24.6 nM in assay [10]. For the same molecule, the binding result in assay [2] is recorded as “no binding”. Further, the dissociation rate constant (koff) is 0.00726 s⁻¹ in assay [3] and 0.0178 s⁻¹ in assay [10]. In addition, the kon in [3] came out at 188000 M⁻¹ s⁻¹; in [10] it was 903000 M⁻¹ s⁻¹.

B12: H1 (VHH)
VHH: EVQLVESGGGLVQPGGSLRLSCAASGFASHLYAIGWFRQAPGKEREKVSCISSNDGSTYYADSVKGRFTISRDTVKDMVYLQMNSLKPEDTAVYYCATDLTVHCFMAEYDWWGQGTQVTVSS
notes: also called phage-H1 (as tracer)
For B12, the Kd in assay [1] came out at 11 nM; in assay [5], 3.7 nM; in assay [8] it was 224 nM; in assay [9], 27.8 nM; in assay [3] it was 57.7 nM; in [10], 22.2 nM. Further, the binding result in [2] is given as “no binding”. The dissociation rate constant (koff) in assay [3] came out at 0.00554 s⁻¹; in assay [10], 0.0109 s⁻¹. Further, the on-rate (kon) in assay [3] worked out at 108000 M⁻¹ s⁻¹; in [10] it was 662000 M⁻¹ s⁻¹.

B13: E4 (VHH)
VHH: EVQLVESGGGLVQAGDSLRLSCTASGLPLSNYPMGWFRRAPGKERELIASISRTGDGTYYADSSVKGRFTISRDNAENTVSLQMNSLKPEDTAVYYCGAGINPTKYWGQGTQVTVSS
For B13, the Kd in assay [1] came out at 3.1 nM. In addition, in [2], the binding result is on record as “no binding”. In assay [3], the Kd is 1.25 nM, the koff was 0.00189 s⁻¹ and the on-rate (kon) came out at 1.51e+06 M⁻¹ s⁻¹.

B14: F2a (VHH)
VHH: EVQLVESGGGLVQPGESLRLSCTASESISIYGVGWYRQAPGEQRVLVAHLKRNGLTEYKDSVKGRFTISRDNARNTIYLEMKNLKPEDTAIYYCNTALGSVLPWGRGTQVTVSS
Consider B14, for which the Kd in [1] was found to be 2.9 nM. In addition, the binding result in assay [2] is listed as “no binding”. In [3], this molecule returned a Kd of 0.545 nM, a koff of 0.000752 s⁻¹ and an on-rate constant (kon) of 1.39e+06 M⁻¹ s⁻¹.

For the origin of these results see US20230414780A1 (VECT HORUS, published 2023).
